Measurements from patent publication US20180002699.

What was measured:
[1] = target: histone H1 (purified human histones isolated from HEK293T cells), P07305
[2] = target: T1, full-length synthetic Tat protein (aa 1-72)
T1 chain: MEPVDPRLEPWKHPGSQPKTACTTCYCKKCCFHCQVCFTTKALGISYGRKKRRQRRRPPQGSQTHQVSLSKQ

[3] = target: histone H3 (histones isolated from HEK293T cells)
[4] = target: CDK9 (P-TEFb component), P50750
[5] = target: cyclin T1 (P-TEFb component), O60563
Chain of cyclin T1 (P-TEFb component), O60563 (O60563 whole entry): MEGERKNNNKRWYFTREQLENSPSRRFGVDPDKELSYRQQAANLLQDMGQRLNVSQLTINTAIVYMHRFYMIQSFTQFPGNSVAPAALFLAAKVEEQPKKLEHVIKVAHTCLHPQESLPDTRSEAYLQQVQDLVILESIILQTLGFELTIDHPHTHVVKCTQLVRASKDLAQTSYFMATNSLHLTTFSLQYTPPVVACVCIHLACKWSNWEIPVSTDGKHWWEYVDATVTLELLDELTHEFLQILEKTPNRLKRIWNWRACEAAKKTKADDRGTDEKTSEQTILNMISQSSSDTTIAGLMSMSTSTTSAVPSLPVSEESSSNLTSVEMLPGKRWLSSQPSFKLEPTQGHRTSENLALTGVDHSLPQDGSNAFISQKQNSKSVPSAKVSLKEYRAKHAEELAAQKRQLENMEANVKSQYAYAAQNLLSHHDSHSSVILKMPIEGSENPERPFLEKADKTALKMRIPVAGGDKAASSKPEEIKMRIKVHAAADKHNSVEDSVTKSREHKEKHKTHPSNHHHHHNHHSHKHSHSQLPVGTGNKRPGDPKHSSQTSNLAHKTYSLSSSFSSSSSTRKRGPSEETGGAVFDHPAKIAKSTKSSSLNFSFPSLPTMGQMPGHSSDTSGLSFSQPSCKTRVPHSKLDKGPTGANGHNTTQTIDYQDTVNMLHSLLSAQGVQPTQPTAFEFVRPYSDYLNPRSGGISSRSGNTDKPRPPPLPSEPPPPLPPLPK

Chain of histone H1 (purified human histones isolated from HEK293T cells), P07305 (P07305 whole entry, looked up, the tested form may be a part): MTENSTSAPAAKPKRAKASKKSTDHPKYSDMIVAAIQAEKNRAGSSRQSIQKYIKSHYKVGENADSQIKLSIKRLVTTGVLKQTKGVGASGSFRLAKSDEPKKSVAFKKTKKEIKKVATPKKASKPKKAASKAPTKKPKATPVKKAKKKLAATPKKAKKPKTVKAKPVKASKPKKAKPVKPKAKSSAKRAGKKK
Chain of CDK9 (P-TEFb component), P50750 (P50750 whole entry): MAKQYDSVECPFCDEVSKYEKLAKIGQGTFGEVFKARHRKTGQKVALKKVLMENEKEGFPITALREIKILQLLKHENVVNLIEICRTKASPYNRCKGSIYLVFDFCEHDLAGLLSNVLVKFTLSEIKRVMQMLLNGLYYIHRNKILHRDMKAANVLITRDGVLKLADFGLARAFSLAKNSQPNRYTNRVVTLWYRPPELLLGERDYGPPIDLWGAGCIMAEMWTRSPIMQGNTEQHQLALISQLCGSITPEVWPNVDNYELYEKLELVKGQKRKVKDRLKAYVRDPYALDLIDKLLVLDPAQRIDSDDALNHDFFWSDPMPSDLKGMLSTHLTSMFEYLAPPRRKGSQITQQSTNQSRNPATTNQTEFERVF

B1: recombinant full-length SMYD5 (SET and MYND domain-containing protein 5) (protein)
chain: MAASMCDVFSFCVGVAGRARVSVEVRFVSSAKGKGLFATQLIRKGETIFVERPLVAAQFLWNALYRYRACDHCLRALEKAEENAQRLTGKPGQVLPHPELCTVRKDLHQNCPHCQVMYCSAECRLAATEQYHQVLCPGPSQDDPLHPLNKLQEAWRSIHYPPETASIMLMARMVATVKQAKDKDRWIRLFSQFCNKTANEEEEIVHKLLGDKFKGQLELLRRLFTEALYEEAVSQWFTPDGFRSLFALVGTNGQGIGTSSLSQWVHACDTLELKPQDREQLDAFIDQLYKDIEAATGEFLNCEGSGLFVLQSCCNHSCVPNAETSFPENNFLLHVTALEDIKPGEEICISYLDCCQRERSRHSRHKILRENYLFVCSCPKCLAEADEPNVTSEEEEEEEEEEEGEPEDAELGDEMTDV
Sp1, P08047
Chain of Sp1, P08047 (P08047 whole entry): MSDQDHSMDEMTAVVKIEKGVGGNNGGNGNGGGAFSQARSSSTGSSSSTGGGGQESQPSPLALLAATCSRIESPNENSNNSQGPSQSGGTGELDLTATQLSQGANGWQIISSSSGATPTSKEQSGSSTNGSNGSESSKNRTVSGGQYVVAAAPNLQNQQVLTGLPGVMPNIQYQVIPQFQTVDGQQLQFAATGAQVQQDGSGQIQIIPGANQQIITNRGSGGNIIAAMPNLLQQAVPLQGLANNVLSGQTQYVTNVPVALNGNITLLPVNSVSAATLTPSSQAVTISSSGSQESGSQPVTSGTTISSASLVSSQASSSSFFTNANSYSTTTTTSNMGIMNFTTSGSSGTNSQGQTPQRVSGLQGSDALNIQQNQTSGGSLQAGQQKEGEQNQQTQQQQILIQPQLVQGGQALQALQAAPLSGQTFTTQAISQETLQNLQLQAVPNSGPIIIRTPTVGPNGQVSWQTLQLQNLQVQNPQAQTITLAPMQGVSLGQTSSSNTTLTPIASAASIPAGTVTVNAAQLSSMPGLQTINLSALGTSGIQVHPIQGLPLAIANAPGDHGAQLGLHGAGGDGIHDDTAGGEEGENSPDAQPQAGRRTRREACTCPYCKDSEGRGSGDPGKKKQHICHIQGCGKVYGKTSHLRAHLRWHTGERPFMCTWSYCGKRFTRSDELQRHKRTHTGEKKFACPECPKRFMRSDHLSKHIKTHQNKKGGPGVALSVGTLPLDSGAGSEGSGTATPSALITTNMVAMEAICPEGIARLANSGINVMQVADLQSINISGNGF
  in vitro methylation (3H-SAM, autoradiography): no methylation was detected for Re1A, Sp1, cyclin T1 and CDK9
[1]
  in vitro methylation (3H-SAM, autoradiography): histones H3 and H1 were weakly and Tat strongly methylated by SMYD5
[2]
  LC-MS/MS of in vitro methylation products (non-radiolabeled SAM): This analysis identified a single site, trimethylation of K41, identified in two distinct peptides (not shown). No mono or dimethylation at Tat K41 was observed.
  in vitro methylation (3H-SAM, autoradiography): histones H3 and H1 were weakly and Tat strongly methylated by SMYD5
[3]
  in vitro methylation (3H-SAM, autoradiography): histones H3 and H1 were weakly and Tat strongly methylated by SMYD5
[4]
  in vitro methylation (3H-SAM, autoradiography): no methylation was detected for Re1A, Sp1, cyclin T1 and CDK9
[5]
  in vitro methylation (3H-SAM, autoradiography): no methylation was detected for Re1A, Sp1, cyclin T1 and CDK9
NF-kB p65 (RelA), Q04206
Chain of NF-kB p65 (RelA), Q04206 (Q04206 whole entry): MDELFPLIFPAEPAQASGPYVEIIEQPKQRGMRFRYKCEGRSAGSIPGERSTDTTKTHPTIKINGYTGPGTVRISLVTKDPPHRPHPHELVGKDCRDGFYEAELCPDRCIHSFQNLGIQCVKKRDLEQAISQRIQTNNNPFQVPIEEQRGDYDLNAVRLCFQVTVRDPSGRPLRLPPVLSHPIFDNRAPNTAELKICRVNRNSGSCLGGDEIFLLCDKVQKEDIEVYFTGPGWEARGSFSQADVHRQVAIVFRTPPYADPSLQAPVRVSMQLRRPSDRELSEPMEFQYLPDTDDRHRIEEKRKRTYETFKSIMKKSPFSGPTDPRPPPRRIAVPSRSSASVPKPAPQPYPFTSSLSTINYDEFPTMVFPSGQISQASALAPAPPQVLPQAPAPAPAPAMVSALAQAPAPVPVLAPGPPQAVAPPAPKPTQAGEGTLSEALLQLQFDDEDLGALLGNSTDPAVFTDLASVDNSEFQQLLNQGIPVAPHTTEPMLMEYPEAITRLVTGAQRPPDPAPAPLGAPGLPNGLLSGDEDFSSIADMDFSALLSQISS
  in vitro methylation (3H-SAM, autoradiography): no methylation was detected for Re1A, Sp1, cyclin T1 and CDK9
